The experiment concerns T cells. The experiment can be described thus: T cell expansion with cytokines after TCR stimulation (cell surface staining). The format is cell-based. The note with it: αCD3/αCD28 beads plus indicated cytokine. The protocol: Previously frozen T cells were thawed and contacted with αCD3/αCD28 dynal beads (cell to bead ratio of 1 to 3) in the presence of indicated cytokines at day 0. From day 3, twice more T cell growth media (RPMI1640, 10% FBS, 2 mM L-glutamin, 100 µM non-essential amino acids, 1 mM sodium pyruvate, 10 mM Hepes, 55 µM β-mercaptoethanol, 10% FBS, and 100 U/ml of penicillin-streptomycin) was added to the plate with indicated cytokines (without cytokine, rhIL2 (50 IU/ml, Novartis), IL6 (10 ng/ml, R&D systems), IL7 (10 ng/ml, Peprotech), IL15 (10 ng/ml, Peprotech), and IL21 (10 ng/ml, Peprotech)) at day 3, 5, 6, 9, 12, 15, and 18.
Cells were harvested at indicated time points and then stained with live/dead dye (eFluro780, eBioscience), CD3 (BioLegend, clone#: OKT3), CD4 (BioLegend, clone#: OKT4), CD8 (BD Bioscience, clone#: RPA-T8), CD45RO (BioLegend, clone#: UCHL1), CCR7 (BioLegend, clone#: G043H7), CD27 (BD Horizon, clone#: L128), CD127 (BioLegend, clone#: A019D5), CD57 (BioLegend, clone#: HCD57), CD126 (BioLegend, clon#: UV4), and CD130 (R&D Systems, clone#: 28126) antibodies. The cells were acquired by FACS Fortessa and then FlowJo program was used for data analysis.

Data on one molecule can be found in US20230256017A1, “METHODS OF MAKING CHIMERIC ANTIGEN RECEPTOR-EXPRESSING CELLS” (Novartis AG, priority 2020, published 2023).

B1: IL7: cytokine present during activation of T cells with αCD3αCD28 beads (protein, UniProt P13232 26-177, looked up)
Interleukin-7: DCDIEGKDGKQYESVLMVSIDQLLDSMKEIGSNCLNNEFNFFKRHICDANKEGMFLFRAARKLRQFLKMNSTGDFDLHLLKVSEGTTILLNCTGQVKGRKPAALGEAQPTKSLEENKSLKEQKKLNDLCFLKRLLQEIKTCWNKILMGTKEH
As to B1, the T cell expansion result is “enhanced T cell expansion”.
